The values that follow come from US20130078237A1 (Amgen, published 2013).

B1: Ab4-MCC-DM1 (antibody, human IgG1, kappa, V domains shown)
VH: QVQLVESGGGVVQPGRSLRLSCAASGFTFSNYGIHWVRQAPGKGLEWVAVIWYDGSNKYYADSVKGRFTISRDNSKNTLYLQMNSLRAEDTAVYYCARDGGYSGYDSGFDYWGQGTLVTVSS
VL: DIVMTQSPLSLPVTPGEPASISCRSSQSLLNSNGYNYLDWYLQKPGQSPQFLIYLGSYRASGVPDRFSGSGSGTDFTLRISRVEAEDVGVYYCIQTLQTPFTFGPGTKVDIKR
modifications: DM1 linked through MCC (SMCC) to lysine residues; 4.5-5.0 DM1 molecules per antibody on average, sites not given
notes: also called Ab4 antibody drug conjugate; conjugated Ab4
B2: Ab4 (antibody, human IgG1, kappa, V domains shown)
VH: B1 VH
VL: B1 VL
notes: Fully human IgG1; also called A4; unconjugated parental Ab4
B3: Ab8-MCC-DM1 (antibody, human IgG1, kappa, V domains shown)
VH: QVQLVESGGGVVQPGRSLRLSCAASGFTFSSYGMHWVRQAPGKGLEWVAVIWYDGSDKYFADSVKGRFTISRDNSKNTLYLQMNSLRAEDTAVYYCARDGIAGARYVYFDYWGQGTLVTVSS
VL: DIQMTQSPSSLSASVGDRVTITCRASQGISNYLAWFQQKPGKAPKSLIYAASSLQGGVPSKFSGSGSGTDFTLTISSLQPEDFATYYCQQYYNYPFTFGPGTTVDIKR
notes: also called Ab8 antibody drug conjugate; conjugated Ab8
B4: Ab8 (antibody, human IgG1, kappa, V domains shown)
VH: B3 VH
VL: B3 VL
notes: also called A8; unconjugated Ab8
B5: Ab4 variant L55I-Y58F + G33S-I34L (antibody, V domains shown)
VH: B1 VH with G33S, I34L
VL: DIVMTQSPLSLPVTPGEPASISCRSSQSLLNSNGYNYLDWYLQKPGQSPQFLIYIGSFRASGVPDRFSGSGSGTDFTLRISRVEAEDVGVYYCIQTLQTPFTFGPGTKVDIK
notes: Rest as Ab4 (IgG1)
B6: Ab4 variant Parent LC + G33S-I34L (antibody, V domains shown)
VH: B1 VH with G33S, I34L
VL: B5 VL with I55L, F58Y
notes: Rest as Ab4 (IgG1)
B7: Ab4 variant Q95N-T96S + G33S-I34L (antibody, V domains shown)
VH: B1 VH with G33S, I34L
VL: B5 VL with I55L, F58Y, Q95N, T96S
notes: Rest as Ab4 (IgG1)
B8: Ab4 variant R24K-S26G + G33S-I34L (antibody, V domains shown)
VH: B1 VH with G33S, I34L
VL: B5 VL with R24K, S26G, I55L, F58Y
notes: Rest as Ab4 (IgG1)
B9: Ab4 variant Q95N-T96S + S103G-G104S (antibody, V domains shown)
VH: B1 VH with S103G, G104S
VL: B5 VL with I55L, F58Y, Q95N, T96S
notes: Rest as Ab4 (IgG1)
B10: Ab4 variant Parent LC + S103G-G104S (antibody, V domains shown)
VH: B1 VH with S103G, G104S
VL: B5 VL with I55L, F58Y
notes: Rest as Ab4 (IgG1)
B11: Ab7 (antibody, human IgG1, lambda, V domains shown)
VH: QVQLVESGGGVVQPGRSLRLSCAASGFTFSTYGMHWVRQAPGKGLEWVAVIWYDGSNKYYGDSVKGRFTISRDNSKNTLYLQMNSLRAEDTAVYYCARDNSHYYYGMDVWGQGTTVTVSS
VL: QSVLTQPPSVSGAPGQRVTISCTGSSSNIGAGYDVNWYQQFPGTAPKLLIYVNNNRPSGVPDRFSGSTSGTSASLAITGLQAEDEADYYCQSYDTSLSASVFGGGTRLTVLG
notes: Fully human IgG1 from XenoMouse hybridoma
B12: Ab6 (antibody, human IgG1, lambda, V domains shown)
VH: QVQLVQSGAEVKKPGASVKVSCKASGYTFTSYGISWVRQAPGQGLEWMGWISAYNGYTHYAQKLQGRVTMTTDTSTSTAYMELRSLRSDDTAVYYCARDYGGNDYYGMDVWGQGTTVTVSS
VL: QSVLTQPPSASGTPGQRVTISCSGSSSNIGINYVYWYQQLPGTAPKLLIYRSDQRPSGVPDRFSGSKSGTSASLALSGLRSEDEADYYCAAWDDSLSGVVFGGGTKLTVLG
notes: as for B11
B13: Ab5 (antibody, human IgG1, kappa, V domains shown)
VH: QVQLVQSGAEVKKPGASVKVSCKASGYTFTSYDINWVRQATGQGLEWMGWMNPNSGNTGYAQKFQGRVTMTRNTSISTAYMELSSLRSEDTAVYYCARGYDFWSGYYYYYYGMDVWGQGTTVTVSS
VL: EIVLTQSPGTLSLSPGERATLSCRASQSVSSSYLAWYQQRPGQAPRLLIYGASSRATGIPDRFSGSGSGTDFTLTISSLEPEDFAVYYCLQSGSSVPLTFGGGTKVEIKR
notes: as for B11
B14: Ab3 (antibody, IgG1, V domains shown)
VH: EVQLLESGGGLVQPGGSLRLSCAASGFTFSSYAMSWVRQAPGKGLEWVSVISDSGGTTDYADSVKGRFTISRDNSKNTLYLQMNSLRAEDTAVYYCARHDYSNRYYFDYWGQGTLVTVSS
VL: EIVLTQSPGTLSLSPGERATLSCRASQSFSSNYLAWYQQKPGQAPRLFIYGASSRATGIPDRFSGSGSGTDFTLTISRLEPEDFAVYFCQQYGISPCSFGQGTKLEIK
notes: Tested as hybridoma supernatant
B15: Ab1 (antibody, human IgG1, kappa, V domains shown)
VH: QMQLQESGPGLVKPSQTLSLTCTVSDGSIISGVYYWSWIRQHPGKGLEWIGYIYYSGSTSYNPSLKSRLTMSVDTSKNQFSLKLSSVTAADTAVYYCARSGYSYALFDYWGQGTLVTVSS
VL: DIQMTQSPSSLSASLGDRVTITCRASQSVDRYFNWYQQKPGKAPKVLIFAASSLQSGVPSRFGGSGSGTDFTLTISSLQPEDFATYYCQQSYSTPWTFGQGTKVEVKR
notes: as for B11
B16: Ab2 (antibody, human IgG1, kappa, V domains shown)
VH: B15 VH with M2V, D26G, G27D, V33G, Y54F, S60D, L69V, M71I, Y109H
VL: DIQMTQSPSSLSASVGDRVTISCRASQFIGRYFNWYQQQPGKAPKVLIYAESSLQSGVPSRFSGSGSGTEFTLTISSLQPEDFARYYCQQSYSTPWTFGQGTKVEIKR
notes: as for B11

Residue numbers refer to the chain shown, from its start. Names and notes keep the numbering of the source.

For one test, the target named is T1, human CD27L on the surface of cells (human, UniProt P32970 1-193).
T1 sequence: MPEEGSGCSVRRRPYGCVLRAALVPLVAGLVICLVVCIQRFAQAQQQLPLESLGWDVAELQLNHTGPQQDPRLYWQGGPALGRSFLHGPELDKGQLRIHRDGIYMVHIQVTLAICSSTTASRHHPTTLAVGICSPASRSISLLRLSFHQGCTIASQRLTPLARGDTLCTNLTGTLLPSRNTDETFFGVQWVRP
The test can be described thus: cell-based or functional assay.
As to B1, the “ADCC against Raji cells, EC50 (calcein release, NK effectors)” value is 6 ng/mL.
Still for that read-out and setting: under B2 stands 10 ng/mL.

A further test deals with T1, human CD27L on the surface of cells. The test can be described thus: cell-based or functional assay. This is another data set of the same source.
B3: the “786-0-IC50, Antibody Conc. (nM); cell growth inhibition, CellTiter-Glo, 4 days” value was found to be 0.11 nM and the “786-0-IC50, Drug Conc. (nM); cell growth inhibition, CellTiter-Glo, 4 days” value was 0.54 nM.
On the same counts, the results for B1 are 0.07 nM and 0.34 nM.

A further test shares this target. The test can be described thus: cell-based or functional assay. This is another data set of the same source.
Take B1: the “ADCP, 786-0 EC50 (pM)” value was determined as 0.087 pM and the “ADCP, Raji EC50 (pM)” value amounted to 1.42 pM.
Regarding B2, the “ADCP, 786-0 EC50 (pM)” value was 0.008 pM and the “ADCP, Raji EC50 (pM)” value was determined as 0.008 pM.

The next test shares this target. Kind of test: flow cytometry (FACS) on 786-0 cells.
For B3, the EC50 (commonly the concentration needed to bring the measured effect to its halfway point) turned out to be 0.08 nM.
B4: the half-maximal effective concentration (EC50) came out at 0.02 nM.
The same measure, in the same setting: under B1 stands 0.1 nM.
Still for that read-out and setting: under B2 stands 0.1 nM.

Another test has the same target. Kind of test: Gyros, native human CD27L on Raji cells.
On to B3, for which the Kd – broadly, the free concentration of one partner at which half of the binding sites on the other are occupied at equilibrium, for simple one-to-one binding – was determined as 0.077 nM.
Turning to B4, the dissociation constant Kd came out at 0.078 nM.
On the same count and under the same terms, under B1 stands 0.023 nM; under B2, 0.014 nM.

Another test shares this target. Kind of test: flow cytometry on 786-0 cells, reference Ab8. On the technique in general: Flow cytometry measures light scatter and fluorescence of single cells or particles in a stream.
In the case of B3, the “fold change of binding EC50 against Ab8” value came out at 4 fold.

Another test deals with T2, CD27L bound to Maxisorp plates (Homo sapiens (Human), UniProt P32970 39-193, limits assumed).
T2 sequence: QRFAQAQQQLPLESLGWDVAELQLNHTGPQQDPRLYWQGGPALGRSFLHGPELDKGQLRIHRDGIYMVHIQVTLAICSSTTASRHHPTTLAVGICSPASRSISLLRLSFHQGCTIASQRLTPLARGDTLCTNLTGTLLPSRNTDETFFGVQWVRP
The test can be described thus: ELISA on plate-bound CD27L; abolished = no curve could be generated or max signal less than 5%. (In general: An ELISA detects its analyte on a solid surface through an enzyme-linked reagent.)
Procedure: CD27L was bound to Maxisorp plates at room temperature for >2 hours, shaking with lug/mL in 100 uL. The plates were then blocked with 250 uL 10% Non-fat dry milk in PBS+0.05% Tween 20 for 2 hours. After a 4×300 uL PBS+0.05% Tween20 (PBST) wash the modified Ab and purified parental control titrations ranging from 0.045 to 100 ng/mL were applied to the plates and incubated for 1 hour. A horseradish peroxidase conjugated αhuFc detection antibody (Jackson) diluted 1:7000 was applied to the plates after another PBST wash, and incubated for 1 hour. A final wash was performed and TMB substrate was incubated for 10 minutes and stopped with phosphoric acid. An OD reading at 450 nm was taken and plotted vs. concentration. These curves were then analyzed with a 3 parameter non linear curve fit and the EC₅₀ and Max calculated signal were compared to the purified control. Binding was determined to be similar to parental if the EC₅₀ was within 2 fold and the Max signal was greater than 50%. The binding was reduced if the EC₅₀ increased greater than 2 fold and/or the max signal was less than 50%. The binding was abolished if no curve could be generated or the max signal was less than 5%.
As to B5, the binding result was “no binding”.
Same read-out and setting: to B6 belongs “no binding”; to B7, “no binding”.
B8: the binding result was “no binding”.
The same measure, in the same setting: to B9 belongs “no binding”.
The same measure, in the same setting: under B10 stands “no binding”.

In another test the target is T3, cynomolgus monkey CD27L (cynomolgus monkey, UniProt A0A2K5WTU9 39-190).
T3 construct: also called cynomolgus CD27L
T3 sequence: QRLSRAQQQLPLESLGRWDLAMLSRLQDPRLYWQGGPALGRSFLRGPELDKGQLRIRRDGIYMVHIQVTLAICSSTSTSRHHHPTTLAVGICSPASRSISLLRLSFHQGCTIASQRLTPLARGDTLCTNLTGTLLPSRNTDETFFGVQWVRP
The test can be described thus: binding to cynomolgus CD27L (column 'Cyno Avidity EC50 nM'); method not stated for the figure.
In turn, B11 displayed an EC50 of 0.43 nM.
On the same count and under the same terms, under B4 stands 0.34 nM; under B12, 0.87 nM.
Still for that read-out and setting: under B13 stands 1.4 nM.
Same read-out and setting: under B2 stands 0.48 nM.

The next test concerns the target T1, human CD27L on the surface of cells. Kind of test: binding to cells with native human CD27L (column 'Native cell Avidity EC50 nM'); cell line and method not stated for the figure.
Take B11: the response was half-maximal at 0.18 nM (EC50).
On the same count and under the same terms, under B4 stands 0.09 nM.
The molecule B14 came in with an EC50 of 4.18 nM.
For B12, the EC50 turned out to be 0.87 nM.
Same read-out and setting: under B13 stands 0.66 nM; under B15, 0.32 nM; under B16, 0.24 nM.
Still for that read-out and setting: to B2 belongs 0.25 nM.

For the next test, the target named is T4, Histidine-tagged human soluble CD27L (human, UniProt P32970 39-193).
T4 construct: also called Hu CD27L-his; soluble human CD27L-his; not shown: histidine tag
T4 sequence: T2 sequence
Kind of test: BIACORE 3000, antibody captured by goat anti-human IgG on a CM5 chip, Hu CD27L-his as analyte (column 'Affinity Hu Biacore KD nM'). On the technique in general: In SPR one partner is held on a chip, and binding of the other changes the refractive index at the surface.
B11: the dissociation constant Kd amounted to 0.71 nM.
Same read-out and setting: under B4 stands 10.8 nM; under B14, 4.35 nM; under B12, 6.06 nM.
Still for that read-out and setting: under B13 stands 10.4 nM; under B15, 0.62 nM.
On the same count and under the same terms, to B16 belongs 0.59 nM; to B2, 3.05 nM.
